# Read-outs that look alike come from different tables or passages of the source.
# B1: CGCAG|GTG 28-mer 5caC(a)|5caC(b) (dsDNA)
# DNA 1: CTGACCGATACGCAGGTGCCTGACTGAC
# DNA 2: GTCAGTCAGGCACCTGCGTATCGGTCAG
# modifications: 5caC at C11 of strand 1 and C17 of strand 2
# B2: weak E-box CGCAA|ATG 28-mer C(a)|C(b) (dsDNA)
# DNA 1: CTGACCCATACGCAAATGTCTGACTGAC
# DNA 2: GTCAGTCAGACATTTGCGTATGGGTCAG
# B3: weak E-box CGCAA|ATG 28-mer 5caC(a)|5caC(b) (dsDNA)
# DNA 1: CTGACCCATACGCAAATGTCTGACTGAC
# DNA 2: GTCAGTCAGACATTTGCGTATGGGTCAG
# modifications: 5caC at C11 of strand 1 and C17 of strand 2
# How the values were obtained:
# Assay in all cases: EMSA
# [1] = target: Tcf12 B-HLH domain (UniProt Q61286)
# [2] = target: T1, Ascl1 B-HLH domain (UniProt Q02067)
# T1 sequence: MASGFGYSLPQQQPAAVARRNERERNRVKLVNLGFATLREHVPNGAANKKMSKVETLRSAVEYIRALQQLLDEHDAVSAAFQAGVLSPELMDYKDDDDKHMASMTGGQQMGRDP
# [3] = target: Tcf12 B-HLH domain;Ascl1 B-HLH domain (;, UniProt Q61286;Q02067 ;, |)
# [4] = target: Tcf4 B-HLH domain;Ascl1 B-HLH domain (;, UniProt Q60722;Q02067 ;, |)
# [5] = target: Tcf4 B-HLH domain (UniProt Q60722)
# [6] = target: T2, Tcf3 B-HLH domain (E47);Ascl1 B-HLH domain (;, UniProt P15806-2;Q02067 ;, |)
# T2 sequence 1: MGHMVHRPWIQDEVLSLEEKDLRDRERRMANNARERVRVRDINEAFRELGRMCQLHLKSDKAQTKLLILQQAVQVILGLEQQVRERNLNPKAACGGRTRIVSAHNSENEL
# T2 sequence 2: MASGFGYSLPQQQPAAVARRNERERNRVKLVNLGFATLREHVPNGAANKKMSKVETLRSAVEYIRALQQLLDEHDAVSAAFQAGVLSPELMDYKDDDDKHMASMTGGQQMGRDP
# [7] = target: T3, Tcf3 B-HLH domain (E47) (UniProt P15806-2)
# T3 sequence: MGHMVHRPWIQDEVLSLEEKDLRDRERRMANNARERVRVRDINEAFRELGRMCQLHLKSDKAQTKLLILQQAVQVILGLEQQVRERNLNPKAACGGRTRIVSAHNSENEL
# [8] = target: T2, Tcf3 B-HLH domain (E47);Ascl1 B-HLH …; remark: listed apart in the source
Binder,binding signal [1] [fold binding vs N1],binding signal [2] [fold binding vs N1],binding signal [3] [fold binding vs N1],binding signal [4] [fold binding vs N1],binding signal [5] [fold binding vs N1],binding signal [6] [fold binding vs N1],binding signal [7] [fold binding vs N1],binding signal [8]
B1,~4,~6,~10,~6,~3,~10,~2,
B2,,,,,,,,~100 fold weaker than N1
B3,,,,,,,,~10 fold binding vs N8
